Test results as given in the Human Domainome abundance scans (Beltran et al. 2025).
± gives the uncertainty stated by the source.

B1: Double-stranded RNA-specific adenosine deaminase, residues 296 to 358; numbered along this chain, P55265 (parent)
chain: MAEIKEKICDYLFNVSDSSALNLAKNIGLTKARDINAVLIDMERQGDVYRQGTTPPIWHLTDK

Variants of: B1
Assay: abundance fitness (aPCA) (normalised: wild type 0, dead -1); higher = more abundant; growth selection in yeast, the domain comes from the species named
Conditions: Homo sapiens

Question: Which abundance fitness does the source give for MAEIKEKICDYLFNVSDSSALNLAKNIGLTKIRDINAVLIDMERQGDVYRQGTTPPIWHLTDK [A32I] here?
Answer: The abundance fitness was 0.076 ± 0.15.

Question: With MAEIKEKICDYLFNVSDSSALNLAKNIGLTKKRDINAVLIDMERQGDVYRQGTTPPIWHLTDK [A32K] as the variant, how does the abundance fitness read?
Answer: Its abundance fitness is -0.37 ± 0.096.

Question: For MAEIKEKICDYLFNVSDSSALNLAKNIGLTKLRDINAVLIDMERQGDVYRQGTTPPIWHLTDK [A32L], which abundance fitness is on record?
Answer: The abundance fitness was 0.25 ± 0.054.

Question: With MAEIKEKICDYLFNVSDSSALNLAKNIGLTKMRDINAVLIDMERQGDVYRQGTTPPIWHLTDK [A32M] as the variant, how does the abundance fitness read?
Answer: Its abundance fitness is 0.088 ± 0.067.

Question: Which abundance fitness does the source give for MAEIKEKICDYLFNVSDSSALNLAKNIGLTKNRDINAVLIDMERQGDVYRQGTTPPIWHLTDK [A32N] here?
Answer: The abundance fitness was -0.232 ± 0.095.

Question: With MAEIKEKICDYLFNVSDSSALNLAKNIGLTKPRDINAVLIDMERQGDVYRQGTTPPIWHLTDK [A32P] as the variant, how does the abundance fitness read?
Answer: Its abundance fitness is -0.162 ± 0.065.

Question: With MAEIKEKICDYLFNVSDSSALNLAKNIGLTKQRDINAVLIDMERQGDVYRQGTTPPIWHLTDK [A32Q] as the variant, how does the abundance fitness read?
Answer: The abundance fitness was -0.034 ± 0.069.

Question: With MAEIKEKICDYLFNVSDSSALNLAKNIGLTKRRDINAVLIDMERQGDVYRQGTTPPIWHLTDK [A32R] as the variant, how does the abundance fitness read?
Answer: Its abundance fitness is -0.485 ± 0.067.

Question: With MAEIKEKICDYLFNVSDSSALNLAKNIGLTKSRDINAVLIDMERQGDVYRQGTTPPIWHLTDK [A32S] as the variant, how does the abundance fitness read?
Answer: Its abundance fitness is -0.103 ± 0.056.

Question: For MAEIKEKICDYLFNVSDSSALNLAKNIGLTKTRDINAVLIDMERQGDVYRQGTTPPIWHLTDK [A32T], which abundance fitness is on record?
Answer: Its abundance fitness is -0.018 ± 0.086.

Question: With MAEIKEKICDYLFNVSDSSALNLAKNIGLTKVRDINAVLIDMERQGDVYRQGTTPPIWHLTDK [A32V] as the variant, how does the abundance fitness read?
Answer: The abundance fitness was 0.108 ± 0.054.

Question: For MAEIKEKICDYLFNVSDSSALNLAKNIGLTKYRDINAVLIDMERQGDVYRQGTTPPIWHLTDK [A32Y], which abundance fitness is on record?
Answer: The abundance fitness was -0.088 ± 0.079.

Question: For MAEIKEKICDYLFNVSDSSALNLAKNIGLTKAADINAVLIDMERQGDVYRQGTTPPIWHLTDK [R33A], which abundance fitness is on record?
Answer: Its abundance fitness is 0.365 ± 0.052.

Question: For MAEIKEKICDYLFNVSDSSALNLAKNIGLTKACDINAVLIDMERQGDVYRQGTTPPIWHLTDK [R33C], which abundance fitness is on record?
Answer: Its abundance fitness is 0.157 ± 0.05.

Question: With MAEIKEKICDYLFNVSDSSALNLAKNIGLTKADDINAVLIDMERQGDVYRQGTTPPIWHLTDK [R33D] as the variant, how does the abundance fitness read?
Answer: The abundance fitness was 0.417 ± 0.074.

Question: With MAEIKEKICDYLFNVSDSSALNLAKNIGLTKAEDINAVLIDMERQGDVYRQGTTPPIWHLTDK [R33E] as the variant, how does the abundance fitness read?
Answer: Its abundance fitness is 0.564 ± 0.085.

Question: Which abundance fitness does the source give for MAEIKEKICDYLFNVSDSSALNLAKNIGLTKAFDINAVLIDMERQGDVYRQGTTPPIWHLTDK [R33F] here?
Answer: Its abundance fitness is 0.19 ± 0.085.

Question: Which abundance fitness does the source give for MAEIKEKICDYLFNVSDSSALNLAKNIGLTKAGDINAVLIDMERQGDVYRQGTTPPIWHLTDK [R33G] here?
Answer: The abundance fitness was 0.207 ± 0.04.

Question: With MAEIKEKICDYLFNVSDSSALNLAKNIGLTKAHDINAVLIDMERQGDVYRQGTTPPIWHLTDK [R33H] as the variant, how does the abundance fitness read?
Answer: Its abundance fitness is 0.094 ± 0.14.

Question: With MAEIKEKICDYLFNVSDSSALNLAKNIGLTKAIDINAVLIDMERQGDVYRQGTTPPIWHLTDK [R33I] as the variant, how does the abundance fitness read?
Answer: Its abundance fitness is 0.262 ± 0.093.

Question: For MAEIKEKICDYLFNVSDSSALNLAKNIGLTKAKDINAVLIDMERQGDVYRQGTTPPIWHLTDK [R33K], which abundance fitness is on record?
Answer: Its abundance fitness is 0.056 ± 0.064.

Question: Which abundance fitness does the source give for MAEIKEKICDYLFNVSDSSALNLAKNIGLTKALDINAVLIDMERQGDVYRQGTTPPIWHLTDK [R33L] here?
Answer: Its abundance fitness is -0.028 ± 0.046.

Question: With MAEIKEKICDYLFNVSDSSALNLAKNIGLTKANDINAVLIDMERQGDVYRQGTTPPIWHLTDK [R33N] as the variant, how does the abundance fitness read?
Answer: The abundance fitness was 0.195 ± 0.072.

Question: Which abundance fitness does the source give for MAEIKEKICDYLFNVSDSSALNLAKNIGLTKAPDINAVLIDMERQGDVYRQGTTPPIWHLTDK [R33P] here?
Answer: The abundance fitness was -0.272 ± 0.071.

Question: For MAEIKEKICDYLFNVSDSSALNLAKNIGLTKASDINAVLIDMERQGDVYRQGTTPPIWHLTDK [R33S], which abundance fitness is on record?
Answer: The abundance fitness was 0.342 ± 0.048.

Question: For MAEIKEKICDYLFNVSDSSALNLAKNIGLTKATDINAVLIDMERQGDVYRQGTTPPIWHLTDK [R33T], which abundance fitness is on record?
Answer: Its abundance fitness is 0.263 ± 0.052.

Question: With MAEIKEKICDYLFNVSDSSALNLAKNIGLTKAVDINAVLIDMERQGDVYRQGTTPPIWHLTDK [R33V] as the variant, how does the abundance fitness read?
Answer: The abundance fitness was 0.327 ± 0.058.

Question: For MAEIKEKICDYLFNVSDSSALNLAKNIGLTKAYDINAVLIDMERQGDVYRQGTTPPIWHLTDK [R33Y], which abundance fitness is on record?
Answer: The abundance fitness was 0.185 ± 0.074.

Question: Which abundance fitness does the source give for MAEIKEKICDYLFNVSDSSALNLAKNIGLTKARAINAVLIDMERQGDVYRQGTTPPIWHLTDK [D34A] here?
Answer: Its abundance fitness is -0.243 ± 0.054.

Question: For MAEIKEKICDYLFNVSDSSALNLAKNIGLTKARCINAVLIDMERQGDVYRQGTTPPIWHLTDK [D34C], which abundance fitness is on record?
Answer: The abundance fitness was -0.978 ± 0.18.

Question: With MAEIKEKICDYLFNVSDSSALNLAKNIGLTKARFINAVLIDMERQGDVYRQGTTPPIWHLTDK [D34F] as the variant, how does the abundance fitness read?
Answer: Its abundance fitness is -0.75 ± 0.09.

Question: For MAEIKEKICDYLFNVSDSSALNLAKNIGLTKARGINAVLIDMERQGDVYRQGTTPPIWHLTDK [D34G], which abundance fitness is on record?
Answer: The abundance fitness was -0.592 ± 0.067.

Question: With MAEIKEKICDYLFNVSDSSALNLAKNIGLTKARHINAVLIDMERQGDVYRQGTTPPIWHLTDK [D34H] as the variant, how does the abundance fitness read?
Answer: Its abundance fitness is -0.578 ± 0.079.

Question: For MAEIKEKICDYLFNVSDSSALNLAKNIGLTKARIINAVLIDMERQGDVYRQGTTPPIWHLTDK [D34I], which abundance fitness is on record?
Answer: The abundance fitness was -0.422 ± 0.13.

Question: For MAEIKEKICDYLFNVSDSSALNLAKNIGLTKARKINAVLIDMERQGDVYRQGTTPPIWHLTDK [D34K], which abundance fitness is on record?
Answer: The abundance fitness was -0.518 ± 0.079.

Question: For MAEIKEKICDYLFNVSDSSALNLAKNIGLTKARLINAVLIDMERQGDVYRQGTTPPIWHLTDK [D34L], which abundance fitness is on record?
Answer: Its abundance fitness is -0.444 ± 0.049.

Question: Which abundance fitness does the source give for MAEIKEKICDYLFNVSDSSALNLAKNIGLTKARMINAVLIDMERQGDVYRQGTTPPIWHLTDK [D34M] here?
Answer: The abundance fitness was -0.333 ± 0.051.

Question: With MAEIKEKICDYLFNVSDSSALNLAKNIGLTKARPINAVLIDMERQGDVYRQGTTPPIWHLTDK [D34P] as the variant, how does the abundance fitness read?
Answer: Its abundance fitness is -0.541 ± 0.073.

Question: With MAEIKEKICDYLFNVSDSSALNLAKNIGLTKARQINAVLIDMERQGDVYRQGTTPPIWHLTDK [D34Q] as the variant, how does the abundance fitness read?
Answer: Its abundance fitness is -0.283 ± 0.073.

Question: For MAEIKEKICDYLFNVSDSSALNLAKNIGLTKARRINAVLIDMERQGDVYRQGTTPPIWHLTDK [D34R], which abundance fitness is on record?
Answer: The abundance fitness was -0.699 ± 0.055.

Question: With MAEIKEKICDYLFNVSDSSALNLAKNIGLTKARSINAVLIDMERQGDVYRQGTTPPIWHLTDK [D34S] as the variant, how does the abundance fitness read?
Answer: Its abundance fitness is -0.397 ± 0.055.

Question: Which abundance fitness does the source give for MAEIKEKICDYLFNVSDSSALNLAKNIGLTKARTINAVLIDMERQGDVYRQGTTPPIWHLTDK [D34T] here?
Answer: Its abundance fitness is -0.724 ± 0.11.

Question: For MAEIKEKICDYLFNVSDSSALNLAKNIGLTKARWINAVLIDMERQGDVYRQGTTPPIWHLTDK [D34W], which abundance fitness is on record?
Answer: Its abundance fitness is -0.984 ± 0.12.
